Test results from publication doi:10.1101/869289 (bioRxiv, 2019).

T1: acylglycerol kinase (AGK) (human, UniProt Q53H12 1-422)
T1 sequence (looked up): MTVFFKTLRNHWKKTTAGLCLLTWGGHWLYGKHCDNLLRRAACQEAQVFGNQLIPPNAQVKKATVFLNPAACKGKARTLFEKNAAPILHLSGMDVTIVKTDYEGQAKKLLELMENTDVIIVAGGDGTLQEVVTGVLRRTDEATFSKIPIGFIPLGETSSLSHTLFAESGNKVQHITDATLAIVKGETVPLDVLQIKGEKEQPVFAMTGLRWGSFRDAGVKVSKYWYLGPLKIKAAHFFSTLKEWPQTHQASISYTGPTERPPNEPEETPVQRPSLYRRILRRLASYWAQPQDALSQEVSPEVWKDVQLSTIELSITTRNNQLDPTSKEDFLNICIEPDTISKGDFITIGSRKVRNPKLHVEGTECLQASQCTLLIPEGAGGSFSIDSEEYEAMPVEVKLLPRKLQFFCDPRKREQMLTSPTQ

B1: Tim29 (natural protein, human, UniProt Q9BSF4 32-260, looked up)
chain: GSWARALLRDYAEACRDASAEARARPGRAAVYVGLLGGAAACFTLAPSEGAFEEALLEASGTLLLLAPATRNRESEAFVQRLLWLRGRGRLRYVNLGLCSLVYEAPFDAQASLYQARCRYLQPRWTDFPGRVLDVGFVGRWWVLGAWMRDCDINDDEFLHLPAHLRVVGPQQLHSETNERLFDEKYKPVVLTDDQVDQALWEEQVLQKEKKDRLALSQAHSLVQAEAPR
B2: Tim10a (natural protein, human, UniProt P62072 1-90, looked up)
chain: MDPLRAQQLAAELEVEMMADMYNRMTSACHRKCVPPHYKEAELSKGESVCLDRCVSKYLDIHERMGKKLTELSMQDEELMKRVQQSSGPA
B3: Tim10b (natural protein, human, UniProt Q9Y5J6 1-103, looked up)
chain: MERQQQQQQQLRNLRDFLLVYNRMTELCFQRCVPSLHHRALDAEEEACLHSCAGKLIHSNHRLMAAYVQLMPALVQRRIADYEAASAVPGVAAEQPGVSPSGS
B4: Tim22 (natural protein, human, UniProt Q9Y584 1-194, looked up)
chain: MAAAAPNAGGSAPETAGSAEAPLQYSLLLQYLVGDKRQPRLLEPGSLGGIPSPAKSEEQKMIEKAMESCAFKAALACVGGFVLGGAFGVFTAGIDTNVGFDPKDPYRTPTAKEVLKDMGQRGMSYAKNFAIVGAMFSCTECLIESYRGTSDWKNSVISGCITGGAIGFRAGLKAGAIGCGGFAAFSAAIDYYLR

How the values were obtained:
Assay in all cases: cryo-EM structure
[1] = molecular target: T1, acylglycerol kinase (AGK)
Tim29 = molecular target: B1
Tim22 = molecular target: B4
Tim10b = molecular target: B3
Tim10a = molecular target: B2

binding result [1] | binding result (Tim29) | binding result (Tim22) | binding result (Tim10b) | stoichiometry N (Tim10a) | Binder
binds |  |  |  |  | B1
binds | binds | binds | binds |  | B2
binds | binds |  |  |  | B3
binds | binds | binds | binds | 1 Tim9:Tim10a (3:3 in the hexamer) | Tim9 (natural protein, human, UniProt Q9Y5J7 1-89, looked up) MAAQIPESDQIKQFKEFLGTYNKLTETCFLDCVKDFTTREVKPEETTCSEHCLQKYLKMTQRISMRFQEYHIQQNEALAAKAGLLGQPR
 | binds |  |  |  | B4
